To fix the notation:
T1: human amylin receptor (amylin 3(a) receptor: human calcitonin receptor with RAMP-3) (human, UniProt P30988 25-474; O60896 24-148)
T1 construct: whole, on cells; also called hAmylin-R; hAmylinR
T1 sequence (looked up) 1: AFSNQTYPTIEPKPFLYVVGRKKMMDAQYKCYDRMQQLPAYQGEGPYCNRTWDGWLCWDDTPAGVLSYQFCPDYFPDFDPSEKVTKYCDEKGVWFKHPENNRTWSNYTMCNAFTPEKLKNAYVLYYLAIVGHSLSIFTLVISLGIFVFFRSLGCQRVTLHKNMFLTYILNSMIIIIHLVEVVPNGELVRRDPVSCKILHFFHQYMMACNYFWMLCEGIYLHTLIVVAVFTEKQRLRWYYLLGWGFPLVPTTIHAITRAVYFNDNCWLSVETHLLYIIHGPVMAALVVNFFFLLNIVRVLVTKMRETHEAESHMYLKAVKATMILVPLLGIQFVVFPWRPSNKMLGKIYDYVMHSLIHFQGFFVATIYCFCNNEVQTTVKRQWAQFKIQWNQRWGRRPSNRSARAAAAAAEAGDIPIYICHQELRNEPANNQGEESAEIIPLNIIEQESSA
T1 sequence (looked up) 2: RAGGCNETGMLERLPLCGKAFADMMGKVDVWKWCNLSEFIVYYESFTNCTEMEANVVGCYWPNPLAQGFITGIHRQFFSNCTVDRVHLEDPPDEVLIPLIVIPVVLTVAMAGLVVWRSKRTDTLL

B1: N^α1-[(4S)-4-carboxy-4-(19-carboxynonadecanoylamino)butanoyl]-[Asp14,Arg17,Pro21,Pro27,Pro37]-h-amylin (peptide)
peptide: {C20 diacid-γGlu}-KCNTATCATQRLADFLRHSSPNFGAIPSSTNVGSNTP-NH2
modifications: disulfide 2-7
SMILES: CC[C@H](C)[C@H](NC(=O)[C@H](C)NC(=O)CNC(=O)[C@H](Cc1ccccc1)NC(=O)[C@H](CC(N)=O)NC(=O)[C@@H]1CCCN1C(=O)[C@H](CO)NC(=O)[C@H](CO)NC(=O)[C@H](Cc1c[nH]cn1)NC(=O)[C@H](CCCNC(=N)N)NC(=O)[C@H](CC(C)C)NC(=O)[C@H](Cc1ccccc1)NC(=O)[C@H](CC(=O)O)NC(=O)[C@H](C)NC(=O)[C@H](CC(C)C)NC(=O)[C@H](CCCNC(=N)N)NC(=O)[C@H](CCC(N)=O)NC(=O)[C@@H](NC(=O)[C@H](C)NC(=O)[C@@H]1CSSC[C@H](NC(=O)[C@H](CCCCN)NC(=O)CC[C@H](NC(=O)CCCCCCCCCCCCCCCCCCC(=O)O)C(=O)O)C(=O)N[C@@H](CC(N)=O)C(=O)N[C@@H]([C@@H](C)O)C(=O)N[C@@H](C)C(=O)N[C@@H]([C@@H](C)O)C(=O)N1)[C@@H](C)O)C(=O)N1CCC[C@H]1C(=O)N[C@@H](CO)C(=O)N[C@@H](CO)C(=O)N[C@H](C(=O)N[C@@H](CC(N)=O)C(=O)N[C@H](C(=O)NCC(=O)N[C@@H](CO)C(=O)N[C@@H](CC(N)=O)C(=O)N[C@H](C(=O)N1CCC[C@H]1C(N)=O)[C@@H](C)O)C(C)C)[C@@H](C)O
notes: also called 10; compound 10
B2: N^α1-[(4S)-4-carboxy-4-(19-carboxynonadecanoylamino)butanoyl]-[Glu14,Arg17,Pro21,Pro26]-h-amylin (peptide)
peptide: {C20 diacid-γGlu}-KCNTATCATQRLAEFLRHSSPNFGAPLSSTNVGSNTY-NH2
modifications: disulfide 2-7
SMILES: CC(C)C[C@H](NC(=O)[C@H](CCCNC(=N)N)NC(=O)[C@H](CCC(N)=O)NC(=O)[C@@H](NC(=O)[C@H](C)NC(=O)[C@@H]1CSSC[C@H](NC(=O)[C@H](CCCCN)NC(=O)CC[C@H](NC(=O)CCCCCCCCCCCCCCCCCCC(=O)O)C(=O)O)C(=O)N[C@@H](CC(N)=O)C(=O)N[C@@H]([C@@H](C)O)C(=O)N[C@@H](C)C(=O)N[C@@H]([C@@H](C)O)C(=O)N1)[C@@H](C)O)C(=O)N[C@@H](C)C(=O)N[C@@H](CCC(=O)O)C(=O)N[C@@H](Cc1ccccc1)C(=O)N[C@@H](CC(C)C)C(=O)N[C@@H](CCCNC(=N)N)C(=O)N[C@@H](Cc1c[nH]cn1)C(=O)N[C@@H](CO)C(=O)N[C@@H](CO)C(=O)N1CCC[C@H]1C(=O)N[C@@H](CC(N)=O)C(=O)N[C@@H](Cc1ccccc1)C(=O)NCC(=O)N[C@@H](C)C(=O)N1CCC[C@H]1C(=O)N[C@@H](CC(C)C)C(=O)N[C@@H](CO)C(=O)N[C@@H](CO)C(=O)N[C@H](C(=O)N[C@@H](CC(N)=O)C(=O)N[C@H](C(=O)NCC(=O)N[C@@H](CO)C(=O)N[C@@H](CC(N)=O)C(=O)N[C@H](C(=O)N[C@@H](Cc1ccc(O)cc1)C(N)=O)[C@@H](C)O)C(C)C)[C@@H](C)O
notes: also called compound 7
B3: N^α1-[(4S)-4-carboxy-4-(19-carboxynonadecanoylamino)butanoyl]-[Glu14,Arg17,Pro21,Pro25,Pro28,Pro29,Pro37]-h-amylin (peptide)
peptide: {C20 diacid-γGlu}-KCNTATCATQRLAEFLRHSSPNFGPILPPTNVGSNTP-NH2
modifications: disulfide 2-7
SMILES: CC[C@H](C)[C@H](NC(=O)[C@@H]1CCCN1C(=O)CNC(=O)[C@H](Cc1ccccc1)NC(=O)[C@H](CC(N)=O)NC(=O)[C@@H]1CCCN1C(=O)[C@H](CO)NC(=O)[C@H](CO)NC(=O)[C@H](Cc1c[nH]cn1)NC(=O)[C@H](CCCNC(=N)N)NC(=O)[C@H](CC(C)C)NC(=O)[C@H](Cc1ccccc1)NC(=O)[C@H](CCC(=O)O)NC(=O)[C@H](C)NC(=O)[C@H](CC(C)C)NC(=O)[C@H](CCCNC(=N)N)NC(=O)[C@H](CCC(N)=O)NC(=O)[C@@H](NC(=O)[C@H](C)NC(=O)[C@@H]1CSSC[C@H](NC(=O)[C@H](CCCCN)NC(=O)CC[C@H](NC(=O)CCCCCCCCCCCCCCCCCCC(=O)O)C(=O)O)C(=O)N[C@@H](CC(N)=O)C(=O)N[C@@H]([C@@H](C)O)C(=O)N[C@@H](C)C(=O)N[C@@H]([C@@H](C)O)C(=O)N1)[C@@H](C)O)C(=O)N[C@@H](CC(C)C)C(=O)N1CCC[C@H]1C(=O)N1CCC[C@H]1C(=O)N[C@H](C(=O)N[C@@H](CC(N)=O)C(=O)N[C@H](C(=O)NCC(=O)N[C@@H](CO)C(=O)N[C@@H](CC(N)=O)C(=O)N[C@H](C(=O)N1CCC[C@H]1C(N)=O)[C@@H](C)O)C(C)C)[C@@H](C)O
notes: also called compound 4
B4: N^α1-[(4S)-4-carboxy-4-(19-carboxynonadecanoylamino)butanoyl]-[Glu14,Arg17,Pro21,Pro25,Pro28,Pro29]-h-amylin (peptide)
peptide: {C20 diacid-γGlu}-KCNTATCATQRLAEFLRHSSPNFGPILPPTNVGSNTY-NH2
modifications: disulfide 2-7
SMILES: CC[C@H](C)[C@H](NC(=O)[C@@H]1CCCN1C(=O)CNC(=O)[C@H](Cc1ccccc1)NC(=O)[C@H](CC(N)=O)NC(=O)[C@@H]1CCCN1C(=O)[C@H](CO)NC(=O)[C@H](CO)NC(=O)[C@H](Cc1c[nH]cn1)NC(=O)[C@H](CCCNC(=N)N)NC(=O)[C@H](CC(C)C)NC(=O)[C@H](Cc1ccccc1)NC(=O)[C@H](CCC(=O)O)NC(=O)[C@H](C)NC(=O)[C@H](CC(C)C)NC(=O)[C@H](CCCNC(=N)N)NC(=O)[C@H](CCC(N)=O)NC(=O)[C@@H](NC(=O)[C@H](C)NC(=O)[C@@H]1CSSC[C@H](NC(=O)[C@H](CCCCN)NC(=O)CC[C@H](NC(=O)CCCCCCCCCCCCCCCCCCC(=O)O)C(=O)O)C(=O)N[C@@H](CC(N)=O)C(=O)N[C@@H]([C@@H](C)O)C(=O)N[C@@H](C)C(=O)N[C@@H]([C@@H](C)O)C(=O)N1)[C@@H](C)O)C(=O)N[C@@H](CC(C)C)C(=O)N1CCC[C@H]1C(=O)N1CCC[C@H]1C(=O)N[C@H](C(=O)N[C@@H](CC(N)=O)C(=O)N[C@H](C(=O)NCC(=O)N[C@@H](CO)C(=O)N[C@@H](CC(N)=O)C(=O)N[C@H](C(=O)N[C@@H](Cc1ccc(O)cc1)C(N)=O)[C@@H](C)O)C(C)C)[C@@H](C)O
notes: also called compound 6
B5: N^α1-[(4S)-4-carboxy-4-(19-carboxynonadecanoylamino)butanoyl]-[Glu14,Arg17,Pro21,Pro26,Pro37]-h-amylin (peptide)
peptide: {C20 diacid-γGlu}-KCNTATCATQRLAEFLRHSSPNFGAPLSSTNVGSNTP-NH2
modifications: disulfide 2-7
SMILES: CC(C)C[C@H](NC(=O)[C@H](CCCNC(=N)N)NC(=O)[C@H](CCC(N)=O)NC(=O)[C@@H](NC(=O)[C@H](C)NC(=O)[C@@H]1CSSC[C@H](NC(=O)[C@H](CCCCN)NC(=O)CC[C@H](NC(=O)CCCCCCCCCCCCCCCCCCC(=O)O)C(=O)O)C(=O)N[C@@H](CC(N)=O)C(=O)N[C@@H]([C@@H](C)O)C(=O)N[C@@H](C)C(=O)N[C@@H]([C@@H](C)O)C(=O)N1)[C@@H](C)O)C(=O)N[C@@H](C)C(=O)N[C@@H](CCC(=O)O)C(=O)N[C@@H](Cc1ccccc1)C(=O)N[C@@H](CC(C)C)C(=O)N[C@@H](CCCNC(=N)N)C(=O)N[C@@H](Cc1c[nH]cn1)C(=O)N[C@@H](CO)C(=O)N[C@@H](CO)C(=O)N1CCC[C@H]1C(=O)N[C@@H](CC(N)=O)C(=O)N[C@@H](Cc1ccccc1)C(=O)NCC(=O)N[C@@H](C)C(=O)N1CCC[C@H]1C(=O)N[C@@H](CC(C)C)C(=O)N[C@@H](CO)C(=O)N[C@@H](CO)C(=O)N[C@H](C(=O)N[C@@H](CC(N)=O)C(=O)N[C@H](C(=O)NCC(=O)N[C@@H](CO)C(=O)N[C@@H](CC(N)=O)C(=O)N[C@H](C(=O)N1CCC[C@H]1C(N)=O)[C@@H](C)O)C(C)C)[C@@H](C)O
notes: also called compound 5

Numbered stars: 1 amine (or outer) side, 2 acyl side, 3 side chain; on linkers, the order of the positions; unused ones are H or OH. Bridge positions count the residues as written; N and C are the ends. * marks the point of attachment. C20 diacid = O=C(O)CCCCCCCCCCCCCCCCCCC(=O)*; γGlu = O=C(O)[C@H](CCC(=O)[*:2])N[*:1]

The experiment deals with T1, human amylin receptor (amylin 3(a) …). Kind of experiment: SPA displacement of 125I-rat amylin, hAmylin 3(a) receptor membranes. The method, then: The binding assay was performed using scintillation proximity assay (SPA) beads (RPNQ0001) from PerkinElmer and cell membranes from the Amylin 3(a)/CRE-luc cells (as described in Assay (II)) were used. Membranes were prepared in the following way; the cells were rinsed with PBS and incubated with Versene for approximately 5 min before harvesting. The cells were flushed with PBS and the cell-suspension was centrifuged for 5 min at 1000 rpm. Cells were homogenized (ultrathurrax) in a buffer containing 20 mM Na-HEPES and 10 mM EDTA (pH 7.4) and centrifuged at 20.000 rpm for 15 min. The resulting pellet was resuspended, homogenized and centrifuged (20.000 rpm, 15 min) in a buffer containing 20 mM Na-HEPES and 0.1 mM EDTA (pH 7.4, buffer 2). The resulting pellet was resuspended in buffer 2 and protein concentration was measured (BCA protein Assay, Pierce). The homogenate was kept cold during the whole procedure. The membranes were kept at −80° C. until use. The assay was performed in a 384 well Optiplate (PerkinElmer) in a total volume of 40 ul. Membranes were mixed with SPA beads. Final concentration of membranes 35 ng/μL final and SPA beads was 0.05 mg/well. Test-compounds were dissolved in DMSO and further diluted in assay buffer (50 mM Hepes, pH 7.4, 1 mM CaCl2, 5 mM MgCl₂, 0.1% OA and 0.02% Tween20). […] The final mixture was incubated with shaking at 400 rpm for 120 min at 25° C. prior to centrifugation (1500 rpm, 10 min). Samples were analyzed on TopCounter™ (Packard). The IC₅₀ was calculated using (one site binding competition analysis) GraphPad Prism5 as a measure of receptor affinity.
Background: In a radioligand displacement assay an active substance lowers the binding of a labelled ligand.
Regarding B1, the IC50 is 0.082 nM.

As for B2, the IC50 was found to be 0.674 nM.

Turning to B3, the half-inhibitory concentration (IC50) was found to be 0.321 nM.

For B4, the IC50 came out at 0.996 nM.

Take B5: the IC50 was determined as 0.374 nM.

One may read the IC50 as the concentration that inhibits the measured activity by half.
